Reference: the nanobody polyreactivity screen of Harvey et al. (2022)

Test: yeast display, Sf9 membrane polyspecificity reagent, FACS + sequencing; frameworks hold sequencing errors
Outline: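 Galactose-induced (36–48 hours) yeast carrying a synthetic nanobody display library were exposed to 10% biotinylated, detergent-solubilized Sf9 membrane reagent at 4 °C for 1 hour. FACS followed streptavidin microbead enrichment, using low and high (top ~1%) gates for expression (anti-HA) and reagent binding (streptavidin). Colony PCR, MiSeq 2 × 250 sequencing and CDR-length filtering followed. Labels for polyreactivity reflect the gate of origin.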

Question: For “QVQLVESGGGLVQAGGSLRLSCAASGSTIDVYTMGWYRQAPGKERELVAAISRGSSTYYADSVKGRFTISRDNAKYTVYVQMNSLKPEDTAVYYCNAVTSRKYRRYGYGYWGQGTQVTVSS”, which “polyreactivity (PSR sort gate)” value is on record?
Answer: The value was “high polyreactivity”.

Question: For “QVQLVESGGGLVQAGGSLRLSCAPSGSTFPRNAMGWYRQAPGKERELVAAISYSGGRTYYADSVKGRFTISRDNAKNTVSLQMNSLKPEDTAVYYCAAQPWFTYYYWGQGTQVTVSS”, which “polyreactivity (PSR sort gate)” value is on record?
Answer: The value was “high polyreactivity”.

Question: Which “polyreactivity (PSR sort gate)” value does the source give for “QVQLVESGGGLVQAGGSLRLSCAASGSTFPGYAMGWYRQAPGKERELVASIYTGGSTYYADSVKGRFTISRDNAKNTVYLQMNSLKPEDTAVYYCAADSYNVSSLLYYWGQGTQVTVSS” here?
Answer: The value was “low polyreactivity”.

Question: With “QVQLVESGGGLVQAGGSLRLSCAASGRIYKRYDMGWYRQAPGKERELVAAITGTGGSTYYADSVKGRFTISRDNAKNTVYLQMNSLKPEDTAVYYCAARLYNTYSGFAFGYWGQGTQVTVSS” as the sequence, how does the “polyreactivity (PSR sort gate)” value read?
Answer: The value was “high polyreactivity”.

Question: Which “polyreactivity (PSR sort gate)” value does the source give for “QVQLVESGGGLVQAGGSLRLSCAASGNIFSSYVMGWYRHAPGKERELVAAISSRGGSTYYADSVKGRFTISRDNAKNTVYLQMNSLKPEDTAVYYCAARYLSWYDWGQGTQVTVSS” here?
Answer: Its value is “high polyreactivity”.

Question: For “QVQLVESGGGLVQAGGSLRLSCAASGFIFSKYARGCYRQAPGKEGELVAAITFSGGSTYYADSVKGRFTISRDNAKNTVYLQMHSLKPEDTAVYYCNAEGSYPDVSPVLGYDYWGQGTQVTVSS”, which “polyreactivity (PSR sort gate)” value is on record?
Answer: The value was “low polyreactivity”.

Question: For “LLQLQESGGVLVQAGCRLRLICAASGSISVTRAMCWYSQAPGKERELVASTTGGSNNADSVNGRFTISRDNAKTTVYLQMNSLKPEDTAVYYCATEYYGPVYDLDYDYCGQGTQVTVSS”, which “polyreactivity (PSR sort gate)” value is on record?
Answer: Its value is “low polyreactivity”.

Question: With “QVQLVESGGGLVQAGGSLRLSCAASGSIYGPYAMGLYRQAPGKERELVAAISSGGSTYYADSVKGRFTISRDNAKNTVYLQMNSLKPEDTAVYYCNKYWGFSYLPYDSWGQGTQVTVSS” as the sequence, how does the “polyreactivity (PSR sort gate)” value read?
Answer: Its value is “low polyreactivity”.

Question: For “QVQLVESVGGLVQAGGSLRLSSAASGLIFNEYVMGWYRQAPGKERELVAGISRIGGSTYYADSVKGRFTISRDNAKNTVYLQMKSLKQEDTAVYYCARPNLLSGDYWGQGTQVTVSS”, which “polyreactivity (PSR sort gate)” value is on record?
Answer: The value was “high polyreactivity”.

Question: Which “polyreactivity (PSR sort gate)” value does the source give for “QVQLVESGGGLVKAGGSLRLSSAASGYNTNTYAMGWYRQAPGKERELVAAISGSGGSTYYADSVKGRFTMSRDNAKTTVYLQMNSLKPEDTAVYYCNVVVRYPSAYDYWGQGTQVTVSS” here?
Answer: The value was “high polyreactivity”.

Question: For “QVQLVESGGGLVQAGGSLRLSCAASGFTFDRYAMGWYRQAPGKERELVAAITSRGGRTYYADSVKGRFTISRDNAKNTVYLQMNSLKPEDTAVYYCNAVYSQSGYFYRFDYWGQVTQVTVSS”, which “polyreactivity (PSR sort gate)” value is on record?
Answer: Its value is “high polyreactivity”.

Question: Which “polyreactivity (PSR sort gate)” value does the source give for “QVQLVESGGGLVQAGGSLRLSCAASGFILDNYAMGWYRQAPGKERELVAAISGSGGSTFYADSVKGRFTISRDNAKNTVYLQMNSLKSEDTAVYYCNRDRLLRQYDYWGQGTQVTVSS” here?
Answer: The value was “high polyreactivity”.

Question: With “QVQLVESGGRLVQAGGSLRLSCAASGNIFTVNAMGWYRQAPGKERELVAAISVGDGTTYYADSVKGRFTISRDNAKNTVYLQMNSLKPEDTAVYYCAAEGYTDYEYWGQGTQVTVSS” as the sequence, how does the “polyreactivity (PSR sort gate)” value read?
Answer: The value was “high polyreactivity”.

Question: With “QDQLVESGGGLVQAGGSLRLSCAASGRIFRYYTRGWYRQAPGKERELVAAIRWSGSTTYYADSVKGRFTISRDYAKNTVYLLMNSLKPEDTAVYYCDARWSYPRWEFDYWGQGTQVTVSS” as the sequence, how does the “polyreactivity (PSR sort gate)” value read?
Answer: Its value is “high polyreactivity”.

Question: Which “polyreactivity (PSR sort gate)” value does the source give for “QVQLVETGGGLVQAGGSLRLSCAASGRPFHRYALGWYRQAPGKDRALGAAISRGGITYYADSVKGRFTISRDNAKNTVYLQMNSLKPEDTAVYYCAALYRYYHESSPFDYWGQGTQVTVSS” here?
Answer: Its value is “high polyreactivity”.

Question: For “QVQLVESGGGLVQAGGSLRLSCAASGLTLYYYAMGWYRQAPGKERELVAAINRGGSTYYSDSVKGRFTISRDNEKNTVYLLMNSLKPEDTAVYYCAVDYGVRDLTYYYCGQGTQVTVSS”, which “polyreactivity (PSR sort gate)” value is on record?
Answer: Its value is “low polyreactivity”.

Question: For “QVQLVESGGGLVQAGGSLRLSCAASGSTFRNYAMGWYRQAPGKERELVAAITKRGGTTYYADSVKGRFTISRDNAKNTVYLQMNSLKPEDTAVYYCAARVKGQWNTYDYWGQVTQVTVSS”, which “polyreactivity (PSR sort gate)” value is on record?
Answer: Its value is “high polyreactivity”.

Question: Which “polyreactivity (PSR sort gate)” value does the source give for “QVQLVESGGGLVQAGGSLRLSCAASGFIFQDYALGWYRQAPGKERELVAAISRSTGSTYYADSVKGRFTISRDNPKNTVYLQMNSLKPEDTAVYYCAKPRSWGYNWGQGTQVTVSS” here?
Answer: Its value is “high polyreactivity”.

Question: For “QVQLVESGGGLVQAGGSLRLSCAASGRTFPVYAMGWYRQAPGKERELVASITGRGGSTYYADSVKGRFTISRDNAKNTVYLQMNSLKPEDTAVYYCARDWYKTYTGYYWGQGTQVTVSS”, which “polyreactivity (PSR sort gate)” value is on record?
Answer: The value was “high polyreactivity”.

Question: Which “polyreactivity (PSR sort gate)” value does the source give for “QVQLVESAGGLGQAGGSLRLSCAASGRIIVRNTMGWYRQAPGKDRELVARITGRGGTTYYADSVKGRFTISRDYAKNPVYFQMNSLKPEDTADYYCKAGKYLRLDPVGPNYSRKYGYWGQGTQVTVSS” here?
Answer: Its value is “low polyreactivity”.

Question: For “QVQLVESGGGLVQAGGSLRLSCAASGRIFYKNAMGWYRQAPGKERELVATITYSDGTTYYADSVKGRFTISRDNAKNTVYLQMNSLKPEDTAVYYCAAQTDSVESDYWGQGTQVTVSS”, which “polyreactivity (PSR sort gate)” value is on record?
Answer: Its value is “low polyreactivity”.

Question: Which “polyreactivity (PSR sort gate)” value does the source give for “QVQLVDSGGGLVQAGGSLRLSCAASGSTFNPYAMGWYRQAPGKERELVAGISWSGGSTYYADSVKGRFSISRDNAKNTVYLQMNSLKPEDTAVYYCAVVVYWSVIYDFWGQGTQVTVST” here?
Answer: Its value is “low polyreactivity”.

Question: For “QVQLVDSGGGLVQAGGSLRLSCAASGRTIATYTQGWYRHAPGKERELVAAISKSGGSTYYADSVKGRFTISRDNAKNTVYLQMNSLKTEDTAVYYCAKRRSGNVRKYDYWGQGTQVTVSS”, which “polyreactivity (PSR sort gate)” value is on record?
Answer: The value was “high polyreactivity”.

Question: For “QVQLVESGGGLVQAGGSLRLSCAASGRIFLGNVMGWSRQAPGKERELVAAISSGGSTNYADSVKGRFTISRDNAKNTVYLQMNSLKPEDTAVYYCAAYFVRDWKLYYYWGQGTHVTVSS”, which “polyreactivity (PSR sort gate)” value is on record?
Answer: The value was “low polyreactivity”.

Question: With “QVQLVESGGGLVQAGGSLRLSCAASGRTFVSYAMGWYRQAPGKERELVAAIRYRGGSTYYADSVKGRFTISRDNAMNTVYLQMNSLKPEDTAVYYCAANQGRYNIYSNYDYWGQGTQVTVSS” as the sequence, how does the “polyreactivity (PSR sort gate)” value read?
Answer: The value was “high polyreactivity”.

Question: For “QVQLVESGGGLVQAGGSLRLSCAASGLTIAYYDMGWYRPAPGKERELVARISRGGSTNYADSVKGRFTISRDNAKNTVYLQMNSLKPEDTAVYYCNTGYVYPYKILMDYWGQGTQVTVSS”, which “polyreactivity (PSR sort gate)” value is on record?
Answer: Its value is “low polyreactivity”.

Question: For “QVQLVESGGGLVQAGGSLRLSCAASGFIFGDNAMGWYRQAPGKERELVAAINSSGGRTYYADSVKGRFTISRDNAKNTVYLQMNSLKPEDTAVYYCNAAYGIASYGSSYYWGQGTQVTVSS”, which “polyreactivity (PSR sort gate)” value is on record?
Answer: Its value is “high polyreactivity”.

Question: With “QVQLVQSGGGLVQAGGSLRLSCAASGIIFYVYAMGWYRQAPGKERELVAAISRSGGRTYYADSVKGRFTISRDNPKNTVYLQMNSLKPEDTAVYYCAAVYPRQVSQVWRDDYWGQGTQVTVSS” as the sequence, how does the “polyreactivity (PSR sort gate)” value read?
Answer: Its value is “high polyreactivity”.

Question: Which “polyreactivity (PSR sort gate)” value does the source give for “QVQLVESGGCLVQAGGSLRLSCAASGRTFRYYAMGWYRQAPGKERELVAAISSSGDRTYYADSVKGRFTISRDNAKNTVYLQMNSLKPEDTAVYYCAADRGARGDYWGQGTQVTVSS” here?
Answer: Its value is “high polyreactivity”.

Question: For “QVQLVESGGGLVQAGGSLRLSCAASGIILPVYAMGWYRQAPGKERELVAAIRWSSGRTYYADSVKGRFTISRDNAKNTVYLQMNSLKPEDTAVYYCNAALYHDSEYNYWGQGTQVTVSS”, which “polyreactivity (PSR sort gate)” value is on record?
Answer: The value was “high polyreactivity”.

Question: Which “polyreactivity (PSR sort gate)” value does the source give for “QVQLVESGGGLVQAGGSLRLSCAASGLIFYDNMGWYRQAPGKERELVAAISSSGGSTSYADSVKGRFTISRDNAKNTVYLQMNSLKPEDTAVYYCAAQYPAYYTNSYWGQGTQVTVSS” here?
Answer: Its value is “low polyreactivity”.

Question: Which “polyreactivity (PSR sort gate)” value does the source give for “QVQLVESGGGLVQAGGSLRLSCAASGIILLRYTMGWYRQAPGKERELVAAISRSAGRTYYADSVKGRFTISRDNAKNTVYLQMNSLKPEDTAVYYCAAAFVSVRKRYGYWGHGTQVTVSS” here?
Answer: Its value is “high polyreactivity”.
